Test results reported in the domain aggregation screens of Martell et al. (2025).

assay: soluble fraction after stress (log2 fold change); higher = more stays soluble; pooled small domains, quantitative proteomics; conditions: stress: pH 4
In short: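 After pH 4 stress, pooled custom libraries of small protein domains were quantified with high-throughput quantitative proteomics. Aggregation propensity is taken from the fold change in each domain's soluble amount following the acid stress. The scale is log2, where higher values mean more stayed soluble.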

**Q.** With “HMQGTTTELLIQKSALYEELNDPEKALNAMFDAFEMDSLNVNVLHRIVSLLLDKEENEKAILYNQLIIDH” as the sequence, how does the “soluble fraction (log2)” value read?
**A.** -0.507

**Q.** Which “soluble fraction (log2)” value does the source give for “HMNLGVIYSLKAEVRSEPNTFSTRLFEVHEGLKVSINQLENDWVEIELLDGKTGWISNDQIRLI” here?
**A.** -0.772

**Q.** For “HMANSDEEVLNKISTKAPTFNELINKIKEFDDTKEINDIWLDVYRYYITDEEYKEIAKKVITGLTYTNQ”, which “soluble fraction (log2)” value is on record?
**A.** -0.544

**Q.** With “HMKLQIQNIEIDKKISELAEGVSAEKLPFLAKLIDRSKLLNDKGEINEDSVKAAIEEVVKAFPDFK” as the sequence, how does the “soluble fraction (log2)” value read?
**A.** -0.945

**Q.** With “HMDVSVPDVTGTRLDRAQSLLEAQGLTLGKVEEFFHATEPAGIVYDQEPRPGTRVDEGTAISVSVSKGPEA” as the sequence, how does the “soluble fraction (log2)” value read?
**A.** 0.0997

**Q.** Which “soluble fraction (log2)” value does the source give for “HMIDEPENLIQEDKMVNIIYDLALLEGVKTFNSSNFQSVKSNDFVYKKYKIDSLQFAKSTQFYASDINR” here?
**A.** -0.404

**Q.** For “HMTLGPKQMGEAIIKNLKEKTGKSLEEWSQRILIHELTDKKEIIDFLKNDNGLGHFQALKIFEHLNGK”, which “soluble fraction (log2)” value is on record?
**A.** -0.652

**Q.** With “HMGEILYSGVLKGGDGPEATKLALEKFLGEANTQVAGRIGVQPETQVIWLSREAVDSAASTLSQHKGNMYV” as the sequence, how does the “soluble fraction (log2)” value read?
**A.** -0.0574

**Q.** Which “soluble fraction (log2)” value does the source give for “HMSSSYVYGGNGEIVILSDVSKHLNVYNLNGQKVTDVNLTAGELQRISIATGIYVVGGKKIVV” here?
**A.** -0.121

**Q.** Which “soluble fraction (log2)” value does the source give for “HMEIRNLMPILSHFLNENDIKLSRESVNLVLDRASGNRENLNNELKKIHDYSFSNKIIDFETIKKLTNLG” here?
**A.** -0.215

**Q.** For “HMGNYRVIKWGMQGDDVKLMQQMLINRGYVLSATGKYASRTLKAIMAFQEANGLKADGIVGKRTWNKLL”, which “soluble fraction (log2)” value is on record?
**A.** -0.134

**Q.** Which “soluble fraction (log2)” value does the source give for “HMEAYDTMEDRTTLAPGFAKLDKRERYILHLRFFEGLTQSQIAERVGISQMHVSRLIRRSLEKLREEIGD” here?
**A.** -0.4

**Q.** For “HMSAMSPTEVGERLRLAREAVRMTQKQAADAISVARTTLVAIEQGQRRVRIDELQQLAKTYGVSVNAILR”, which “soluble fraction (log2)” value is on record?
**A.** 0.27

**Q.** For “HMNYAVTAARRESILNAALEIFGKSGYNGSSVKQVALAVGMTEAGVLHHFGTKSNLLIEVLRV”, which “soluble fraction (log2)” value is on record?
**A.** ≥ 0.43

**Q.** For “HMTTLTPIGKMKGEIDGDFEAFYLAVDKDGQVYLNRDPDYSENRYEKSRGWELVTREQLAVYEKELHFIP”, which “soluble fraction (log2)” value is on record?
**A.** -0.25

**Q.** For “HMGAKLTTAQGGTLKVLVKGKKTHTPTIELRDKDPDFPNAKVVQPDINKGNKQIAHGINGVL”, which “soluble fraction (log2)” value is on record?
**A.** 0.144

**Q.** With “HMGAAFITSSKDNAINIRQSANTDSKVIETVTNGQILESNEKSGEWHKVTYYDNDIKKSFTGYVHEGQLK” as the sequence, how does the “soluble fraction (log2)” value read?
**A.** -0.129

**Q.** Which “soluble fraction (log2)” value does the source give for “HMRAAEPTTDAQRDRRRRIVLTAMTMLQERGYDEIQMRDVAQQAGVALGTLYRYFPSKEQLFAHVLVE” here?
**A.** -0.68

**Q.** For “HMRRVEDVRTALEHFAAARNTTPMAMTLDQRREAMRELAASGLLNLRRALSEVAQTLGVARSTVYTYLP”, which “soluble fraction (log2)” value is on record?
**A.** ≥ 0.43

**Q.** Which “soluble fraction (log2)” value does the source give for “HMKERVSWDERLERFAKHITENESLPYPSSKEYAWFEENKALYDAGELEPVRAQSFAFLLKIMRRMNL” here?
**A.** 0.0752

**Q.** With “HMAKKDVESTLGGRLRVARVRAGLTQVELARMLGMNSVSLSNVEGGRRGLSMKQLVRVAKILEVPVAYLLG” as the sequence, how does the “soluble fraction (log2)” value read?
**A.** 0.151

**Q.** For “HMGPTLSPAEKRVFEVIPYDAILQDMVIRAAELPPGEVLAALTTLELKGLIKRLPGNLVMRRAR”, which “soluble fraction (log2)” value is on record?
**A.** -0.267

**Q.** For “HMQDNDLKNQIENVLRTYPDNVFTVEKIADVLRSHGSAAFKLIVQELASLERDKVAVVTEDGKFQLNPD”, which “soluble fraction (log2)” value is on record?
**A.** 0.339

**Q.** Which “soluble fraction (log2)” value does the source give for “HMPVTAQFDFSKVLAGRTLKDGEFSFVLKDKNGTVLQTKTNDASGKVAFDALIYKNNEVGEHKYTVEEVI” here?
**A.** 0.294

**Q.** Which “soluble fraction (log2)” value does the source give for “HMSDKPIFIDTAGIAALSAIGFSKYQATIIFNYIKKGGAIYTVKDLAKIYSIDQKTIDLTQSKIIFS” here?
**A.** 0.22

**Q.** For “HMTNEPRLTNMGFNKMLIENYKMILEYQDFFIRISTQIGIININGFDLKLGEMTADEVLVTGKIESIDL”, which “soluble fraction (log2)” value is on record?
**A.** ≥ 0.43

**Q.** Which “soluble fraction (log2)” value does the source give for “HMRRLGTTEIAGILRREISQGILIAKERLPSERSLADTYGVARGTVRQALNLLAREGLVQIRRSSGAYVTF” here?
**A.** -0.299

**Q.** For “HMGKKGPELNDNEKIIFNIISKENSMNLDDLKNRTELSNKQWDKAIKGLRSHELVNIEKIDDQLLIHL”, which “soluble fraction (log2)” value is on record?
**A.** -0.598

**Q.** For “HMADLIVFTTDANKEKKVDDETYFYLDVVSDGKLVENYELTEKQYNYIKDLGVGEYVYNEKGKLDSYTAFT”, which “soluble fraction (log2)” value is on record?
**A.** -1.12

**Q.** Which “soluble fraction (log2)” value does the source give for “HMPPDVIENIFKNDANKIIDLYNMAPRGQKETIVEMIKNKRLQGINVDANVLVKLGELTGIDFVN” here?
**A.** -1.37

**Q.** Which “soluble fraction (log2)” value does the source give for “HMFERFIFTDEVYIRLKKSGLPQTTLRPLLEIHGKSFDHNEINIILSGLIPNQDFERYAQIIKSHSRF” here?
**A.** -2.14

**Q.** Which “soluble fraction (log2)” value does the source give for “HMVITISEADVSGTYTKSITQGDWKYIRTWTPFEDERLYDLAKDPMELRDLAPAAPSKLAELRELLSALVS” here?
**A.** -1.56

**Q.** With “HMGRTVKGVNFVGLRDAGDPVDLAEIYSKEGADELVFLDITATHEKRKTLLDLVTRVAERINIPFTVGGGI” as the sequence, how does the “soluble fraction (log2)” value read?
**A.** -0.331

**Q.** For “HMTTHERHEIIELLRQVGDPMRPKEISEALGKPSGAIRFLLSKLTEEGAIKKTGYGQYTYIP”, which “soluble fraction (log2)” value is on record?
**A.** -0.0635

**Q.** For “HMISAQEQALRNLKLSNGMTWKALAKALGITERSILSYVAAPGTKGYREMPAEVWHKLENISGH”, which “soluble fraction (log2)” value is on record?
**A.** 0.143

**Q.** For “HMSLSPAATRSRGYPSVLLTMKAPERLVSAAGPDRRAYLVGTDPLVIELPGVKGLYKVDPDQIVFE”, which “soluble fraction (log2)” value is on record?
**A.** -0.0637

**Q.** With “HMDIVEIYVGEEDGERIDSYLAQELNNVSRSYVQGLIKNQLITVNGNHVKPKHIVKEGEHIIVNIPPPKV” as the sequence, how does the “soluble fraction (log2)” value read?
**A.** -0.108

**Q.** For “HMDAMLGEALRLIRVYHDLKQKQAAERLEVSTSYLSEIERGLKTPTLDIIQRYATVFDMPVSSIMFFSENL”, which “soluble fraction (log2)” value is on record?
**A.** -1.19
